Measured values as given in patent US20190359711A1 (Janssen / Centocor, published 2019).

What was measured:
[1] = target: T1, rh-CD19 (UniProt P15391 20-291, limits assumed); experiment: SPR (Biacore 8K), antibody passed over immobilized protein
T1 construct: 'rh-' is not explained
T1 sequence (looked up): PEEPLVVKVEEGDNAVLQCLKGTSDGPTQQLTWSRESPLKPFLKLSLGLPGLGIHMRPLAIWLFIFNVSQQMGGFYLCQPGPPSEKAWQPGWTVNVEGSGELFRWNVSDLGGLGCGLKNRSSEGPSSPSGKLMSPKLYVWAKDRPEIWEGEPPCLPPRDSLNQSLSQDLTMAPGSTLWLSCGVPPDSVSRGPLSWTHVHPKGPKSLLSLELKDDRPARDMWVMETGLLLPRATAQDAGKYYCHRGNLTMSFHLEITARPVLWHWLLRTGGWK
Protocol: (§1) Non-specific binding of the lead molecule to unrelated surfaces is determined by biosensor technology (Biacore 8K). Antibody is passed over SPR surfaces coated with unrelated proteins. […] Lead molecule is tested at the final concentration of 1 μM. Irrelevant surfaces include negatively charged protein (Soy Trypsin Inhibitor), positively charged protein (Lysozyme and β-defensin), hydrophobic (Rh-integrin a4b7), human IgG, sticky protein (Rh-CD19). Proper controls are used in this experiment. Lead is flown over two surfaces, one is a blank and the other has a molecule directly immobilized. The response unit (RU) level is determined by subtracting the blank RU from the test surface RU. The RU of TMCB150 and the parental mAbs are given below in the table. A response unit ≥100 predicts high risks for non-specific binding to charged/hydrophobic/IgG surfaces which would create challenges during manufacturing and translate to poor PK properties. None of the antibodies show non-specific binding to irrelevant surfaces predicting low to no risks for manufacturing and in-vivo behavior.

[2] = target: T2, rh-Integrin a4b7 (UniProt P13612 34-977; P26010 20-723); experiment: as above
T2 construct: 'rh-' is not explained
T2 sequence (P13612 34-977, chain 1 of 2): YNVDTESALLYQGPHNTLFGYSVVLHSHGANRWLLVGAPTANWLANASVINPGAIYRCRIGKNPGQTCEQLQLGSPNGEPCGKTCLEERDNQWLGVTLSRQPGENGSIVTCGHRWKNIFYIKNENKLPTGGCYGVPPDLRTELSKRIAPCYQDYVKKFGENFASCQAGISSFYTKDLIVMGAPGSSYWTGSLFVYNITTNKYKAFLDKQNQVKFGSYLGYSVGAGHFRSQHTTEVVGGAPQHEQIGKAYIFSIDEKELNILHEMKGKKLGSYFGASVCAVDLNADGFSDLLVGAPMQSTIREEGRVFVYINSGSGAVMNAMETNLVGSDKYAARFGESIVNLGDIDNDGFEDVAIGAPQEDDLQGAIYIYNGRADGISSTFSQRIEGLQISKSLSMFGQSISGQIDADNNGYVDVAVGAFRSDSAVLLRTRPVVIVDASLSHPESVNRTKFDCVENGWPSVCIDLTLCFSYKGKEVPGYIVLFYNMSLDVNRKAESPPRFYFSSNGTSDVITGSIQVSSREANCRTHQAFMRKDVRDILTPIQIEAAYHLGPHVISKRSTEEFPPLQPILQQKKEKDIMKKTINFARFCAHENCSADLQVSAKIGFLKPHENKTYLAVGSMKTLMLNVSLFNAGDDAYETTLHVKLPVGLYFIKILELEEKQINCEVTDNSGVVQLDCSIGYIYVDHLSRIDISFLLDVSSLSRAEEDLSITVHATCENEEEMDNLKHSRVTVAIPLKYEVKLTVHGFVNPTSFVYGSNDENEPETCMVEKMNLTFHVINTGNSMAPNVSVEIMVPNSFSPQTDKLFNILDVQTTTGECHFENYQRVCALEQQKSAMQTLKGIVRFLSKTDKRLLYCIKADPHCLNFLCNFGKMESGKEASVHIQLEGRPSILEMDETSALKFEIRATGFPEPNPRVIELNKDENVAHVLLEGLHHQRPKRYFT
T2 sequence (P26010 20-723, chain 2 of 2): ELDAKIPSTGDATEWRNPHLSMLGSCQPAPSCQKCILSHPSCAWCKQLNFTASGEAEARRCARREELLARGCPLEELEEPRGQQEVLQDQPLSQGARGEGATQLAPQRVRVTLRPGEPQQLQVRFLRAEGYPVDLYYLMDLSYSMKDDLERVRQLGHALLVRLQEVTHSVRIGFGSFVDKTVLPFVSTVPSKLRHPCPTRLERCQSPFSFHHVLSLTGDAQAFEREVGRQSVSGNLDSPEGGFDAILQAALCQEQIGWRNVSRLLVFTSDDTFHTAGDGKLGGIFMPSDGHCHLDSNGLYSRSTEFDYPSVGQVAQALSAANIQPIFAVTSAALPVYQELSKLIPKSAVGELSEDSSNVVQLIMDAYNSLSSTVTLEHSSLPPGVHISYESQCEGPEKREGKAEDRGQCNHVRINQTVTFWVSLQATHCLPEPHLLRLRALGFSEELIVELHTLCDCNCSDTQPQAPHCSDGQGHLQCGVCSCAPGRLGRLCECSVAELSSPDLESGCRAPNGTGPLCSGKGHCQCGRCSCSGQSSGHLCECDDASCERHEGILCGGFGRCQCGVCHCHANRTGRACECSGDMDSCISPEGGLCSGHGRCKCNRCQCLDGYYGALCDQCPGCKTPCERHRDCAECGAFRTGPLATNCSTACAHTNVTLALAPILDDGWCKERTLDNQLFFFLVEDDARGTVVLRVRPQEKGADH
Protocol: as §1

[3] = target: T3, B-Defensin-3 (Homo sapiens (Human), UniProt P81534 23-67, not fully specified); experiment: as above
T3 construct: also called β-defensin
T3 peptide: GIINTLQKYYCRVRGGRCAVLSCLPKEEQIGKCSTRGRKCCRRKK
Protocol: as §1

[4] = target: Lysozyme; experiment: SPR (Biacore 8K), 1 µM antibody over immobilized protein, blank subtracted
Chain of Lysozyme (P00698 19-147): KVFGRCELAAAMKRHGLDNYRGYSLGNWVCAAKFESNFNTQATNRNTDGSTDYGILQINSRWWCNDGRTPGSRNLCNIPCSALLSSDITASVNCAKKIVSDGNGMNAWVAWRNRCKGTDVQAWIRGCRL
Protocol: as §1

[5] = target: T1, rh-CD19; experiment: as above
Protocol: as §1

[6] = target: T2, rh-Integrin a4b7; experiment: as above
Protocol: as §1

[7] = target: T3, B-Defensin-3; experiment: as above
Protocol: as §1

[8] = target: T4, Soy Trypsin Inhibitor (soy); experiment: as above
T4 construct: also called STI
T4 sequence (P01070 25-205): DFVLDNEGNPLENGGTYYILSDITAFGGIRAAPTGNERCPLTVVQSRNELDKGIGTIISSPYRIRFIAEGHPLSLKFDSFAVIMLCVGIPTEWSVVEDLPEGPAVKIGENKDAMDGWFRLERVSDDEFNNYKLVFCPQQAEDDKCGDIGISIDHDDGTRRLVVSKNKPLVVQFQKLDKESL
Protocol: as §1

[9] = target: Human IgG; experiment: as above
Protocol: as §1

| Binder | binding result [1] | binding result [2] | binding result [3] | response unit (RU) [4] | response unit (RU) [5] | response unit (RU) [6] | response unit (RU) [7] | response unit (RU) [8] | response unit (RU) [9] |
| --- | --- | --- | --- | --- | --- | --- | --- | --- | --- |
| TMEB762 (antibody, human IgG4 S228P, kappa, F234A L235A, V domains shown, IgG4PAA; re-engineered variant of TMEB675 (HC R14P, P20L, H81Q; LC A1D, A91P, Kabat); Bivalent TMEFF2 parent of TMCB150; also called anti-TMEFF2 antibody; VH TMEH459) VH: EVQLLESGGGLVQPGGSLRLSCAASGFTFSSYSMSWVRQAPGKGLEWVSVISGSGGFTDYADSVKGRFTISRDNSKNTLYLQMNSLRAEDTAVYYCARMPLNSPHDYWGQGTLVTVSS VL: DIQMTQSPSSLSASVGDRVTITCRASQGIRNDLGWYQQKPGKAPKLLIYAASSLQSGVPSRFSGSGSGTDFTLTISSLQPEDFATYYCLQDYNYPLTFGGGTKVEIKR | no binding | no binding | no binding | 4.6 RU | 3.3 RU | 0 RU | 4.1 RU | 0 RU | 8.4 RU |
| TMCB150 (bispecific antibody, human IgG4 S228P, kappa, lambda, F234A L235A, made by Fab arm exchange of the parental IgG4PAA mAbs, so the chains are those of TMEB762 (HC 91, LC 92) and CD3B376 (HC 78, LC 79); also called TMEB762xCD3B376; bispecific anti-TMEFF2/CD3 antibody) heavy 1: not shown light 1: not shown heavy 2: QVQLQQSGPRLVRPSQTLSLTCAISGDSVFNNNAAWSWIRQSPSRGLEWLGRTYYRSKWLYDYAVSVKSRITVNPDTSRNQFTLQLNSVTPEDTALYYCARGYSSSFDYWGQGTLVTVSSASTKGPSVFPLAPCSRSTSESTAALGCLVKDYFPEPVTVSWNSGALTSGVHTFPAVLQSSGLYSLSSVVTVPSSSLGTKTYTCNVDHKPSNTKVDKRVESKYGPPCPPCPAPEAAGGPSVFLFPPKPKDTLMISRTPEVTCVVVDVSQEDPEVQFNWYVDGVEVHNAKTKPREEQFNSTYRVVSVLTVLHQDWLNGKEYKCKVSNKGLPSSIEKTISKAKGQPREPQVYTLPPSQEEMTKNQVSLTCLVKGFYPSDIAVEWESNGQPENNYKTTPPVLDSDGSFLLYSKLTVDKSRWQEGNVFSCSVMHEALHNHYTQKSLSLSLGK light 2: QSALTQPASVSGSPGQSITISCTGTSSNIGTYKFVSWYQQHPDKAPKVLLYEVSKRPSGVSSRFSGSKSGNTASLTISGLQAEDQADYHCVSYAGSGTLLFGGGTKLTVLGQPKAAPSVTLFPPSSEELQANKATLVCLISDFYPGAVTVAWKADSSPVKAGVETTTPSKQSNNKYAASSYLSLTPEQWKSHRSYSCQVTHEGSTVEKTVAPTECS | no binding | no binding | no binding | 4.2 RU | 3.4 RU | 0 RU | 6.4 RU | 1.6 RU | 7.5 RU |
| CD3B376 (antibody, V domains shown, HC is IgG4 S228P, F234A, L235A, F405L, R409K; also called anti-CD3 antibody; bivalent CD3B376) VH: QVQLQQSGPRLVRPSQTLSLTCAISGDSVFNNNAAWSWIRQSPSRGLEWLGRTYYRSKWLYDYAVSVKSRITVNPDTSRNQFTLQLNSVTPEDTALYYCARGYSSSFDYWGQGTLVTVSS VL: QSALTQPASVSGSPGQSITISCTGTSSNIGTYKFVSWYQQHPDKAPKVLLYEVSKRPSGVSSRFSGSKSGNTASLTISGLQAEDQADYHCVSYAGSGTLLFGGGTKLTVLG | no binding | no binding | no binding | 0.2 RU | 0 RU | 0 RU | 3.1 RU | 19.5 RU | 0.4 RU |
